Reference: paper PMC10397247

Tests used:
Assay in all cases: two-hybrid library CCNG1;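 further: natural log of median RNA to DNA barcode read ratio; higher means stronger binding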
4H477-bH = target: T1, 4H477-bH
T1 chain: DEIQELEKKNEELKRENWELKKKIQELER

4H2588-bH = target: T2, 4H2588-bH
T2 chain: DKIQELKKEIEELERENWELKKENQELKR

4H3057-bH = target: T3, 4H3057-bH
T3 chain: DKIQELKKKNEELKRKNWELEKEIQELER

4H2839-bH = target: T4, 4H2839-bH
T4 chain: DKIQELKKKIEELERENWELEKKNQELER

4H2223-bH = target: T5, 4H2223-bH
T5 chain: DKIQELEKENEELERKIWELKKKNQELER

4H3858-bN = target: T6, 4H3858-bN
T6 chain: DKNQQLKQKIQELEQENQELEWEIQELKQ

4H2438-bH = target: T7, 4H2438-bH
T7 chain: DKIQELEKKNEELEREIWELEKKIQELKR

4H348-bH = target: T8, 4H348-bH
T8 chain: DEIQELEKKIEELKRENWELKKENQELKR

4H2692-bH = target: T9, 4H2692-bH
T9 chain: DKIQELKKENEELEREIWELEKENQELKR

4H319-bH = target: T10, 4H319-bH
T10 chain: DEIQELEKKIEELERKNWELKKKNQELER

4H2473-bH = target: T11, 4H2473-bH
T11 chain: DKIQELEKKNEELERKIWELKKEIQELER

4H40-bH = target: T12, 4H40-bH
T12 chain: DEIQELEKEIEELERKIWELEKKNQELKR

4H2503-bH = target: T13, 4H2503-bH
T13 chain: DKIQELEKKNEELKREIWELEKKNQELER

4H492-bH = target: T14, 4H492-bH
T14 chain: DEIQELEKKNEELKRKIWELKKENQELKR

4H741-bH = target: T15, 4H741-bH
T15 chain: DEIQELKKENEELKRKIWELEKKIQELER

4H3277-bH = target: T16, 4H3277-bH
T16 chain: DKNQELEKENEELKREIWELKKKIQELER

4H2143-bH = target: T17, 4H2143-bH
T17 chain: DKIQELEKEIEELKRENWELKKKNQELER

4H2915-bH = target: T18, 4H2915-bH
T18 chain: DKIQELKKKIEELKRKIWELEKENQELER

4H2134-bH = target: T19, 4H2134-bH
T19 chain: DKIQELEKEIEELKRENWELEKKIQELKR

4H2717-bH = target: T20, 4H2717-bH
T20 chain: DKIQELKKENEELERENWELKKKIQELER

O5-bP = target: T21, O5-bP
T21 chain: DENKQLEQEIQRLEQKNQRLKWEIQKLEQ

O15-bP = target: T22, O15-bP
T22 chain: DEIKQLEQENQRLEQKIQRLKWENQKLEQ

O14-bP = target: T23, O14-bP
T23 chain: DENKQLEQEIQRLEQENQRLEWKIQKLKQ

O9-bP = target: T24, O9-bP
T24 chain: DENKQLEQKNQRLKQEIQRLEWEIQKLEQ

O16-bP = target: T25, O16-bP
T25 chain: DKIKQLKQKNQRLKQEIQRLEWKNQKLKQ

O4-bP = target: T26, O4-bP
T26 chain: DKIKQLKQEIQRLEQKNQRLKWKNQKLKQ

O12-bP = target: T27, O12-bP
T27 chain: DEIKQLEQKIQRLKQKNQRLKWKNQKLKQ

O3-bP = target: T28, O3-bP
T28 chain: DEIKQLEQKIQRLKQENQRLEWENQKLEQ

O13-bP = target: T29, O13-bP
T29 chain: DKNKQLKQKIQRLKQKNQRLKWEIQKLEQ

O8-bP = target: T30, O8-bP
T30 chain: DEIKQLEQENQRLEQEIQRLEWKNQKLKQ

O6-bP = target: T31, O6-bP
T31 chain: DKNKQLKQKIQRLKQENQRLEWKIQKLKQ

O7-bP = target: T32, O7-bP
T32 chain: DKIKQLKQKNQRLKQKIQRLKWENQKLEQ

O2-bP = target: T33, O2-bP
T33 chain: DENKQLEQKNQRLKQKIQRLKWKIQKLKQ

O11-bP = target: T34, O11-bP
T34 chain: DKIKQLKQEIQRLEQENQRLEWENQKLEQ

P2A-bN = target: T35, P2A-bN
T35 chain: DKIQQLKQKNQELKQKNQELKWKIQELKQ

P12A-bN = target: T36, P12A-bN
T36 chain: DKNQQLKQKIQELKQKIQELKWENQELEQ

P6A-bN = target: T37, P6A-bN
T37 chain: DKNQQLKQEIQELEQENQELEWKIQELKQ

P4A-bN = target: T38, P4A-bN
T38 chain: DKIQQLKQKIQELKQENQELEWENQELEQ

P7A-bN = target: T39, P7A-bN
T39 chain: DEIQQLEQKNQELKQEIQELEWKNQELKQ

P8A-bN = target: T40, P8A-bN
T40 chain: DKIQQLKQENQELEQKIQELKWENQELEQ

P9A-bN = target: T41, P9A-bN
T41 chain: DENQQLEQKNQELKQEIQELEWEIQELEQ

P1A-bN = target: T42, P1A-bN
T42 chain: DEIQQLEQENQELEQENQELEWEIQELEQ

P3A-bN = target: T43, P3A-bN
T43 chain: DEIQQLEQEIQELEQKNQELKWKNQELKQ

P5A-bN = target: T44, P5A-bN
T44 chain: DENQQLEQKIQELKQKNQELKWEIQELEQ

4H3601-bA = target: T45, 4H3601-bA
T45 chain: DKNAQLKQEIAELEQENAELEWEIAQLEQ

4H1387-bA = target: T46, 4H1387-bA
T46 chain: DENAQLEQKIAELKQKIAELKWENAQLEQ

4H3592-bA = target: T47, 4H3592-bA
T47 chain: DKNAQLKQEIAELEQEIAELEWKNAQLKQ

4H3907-bA = target: T48, 4H3907-bA
T48 chain: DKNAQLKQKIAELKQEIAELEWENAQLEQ

4H4038-bA = target: T49, 4H4038-bA
T49 chain: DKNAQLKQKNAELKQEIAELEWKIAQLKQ

4H1406-bA = target: T50, 4H1406-bA
T50 chain: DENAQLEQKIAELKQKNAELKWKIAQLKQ

DKIQELEKEIEELKRENWELEKKIQELKR [4H2134-bH] showed an interaction score (4H477-bH) of 1.08, an interaction score (4H2588-bH) of 1.01 and an interaction score (4H3057-bH) of 1.45. For the same binder, the interaction score (4H2839-bH) was 0.785, the interaction score (4H2223-bH) was -0.653 and the interaction score (4H3858-bN) was 0.573. It also gave an interaction score (4H2438-bH) of 0.0398, an interaction score (4H348-bH) of -0.551 and an interaction score (4H2692-bH) of 0.18. It also gave an interaction score (4H319-bH) of 0.925, an interaction score (4H2473-bH) of 0.459 and an interaction score (4H40-bH) of -0.995. It also gave an interaction score (4H2503-bH) of 1.45, an interaction score (4H492-bH) of 0.362 and an interaction score (4H741-bH) of 0.37. The interaction score (4H3277-bH) was -0.74, the interaction score (4H2143-bH) was 0.0686 and the interaction score (4H2915-bH) was 1.56. It also gave an interaction score (4H2134-bH) of 0.746 and an interaction score (4H2717-bH) of 1.07.

DKIKQLKQEIQRLEQENQRLEWENQKLEQ [O11-bP] showed an interaction score (O5-bP) of -0.395, an interaction score (O15-bP) of -0.41 and an interaction score (O14-bP) of -0.129. It also gave an interaction score (O9-bP) of -0.645, an interaction score (O16-bP) of -1.05 and an interaction score (O4-bP) of 0.69. For the same binder, the interaction score (O12-bP) was 0.837, the interaction score (O3-bP) was 0.514 and the interaction score (O13-bP) was -1.07. For the same binder, the interaction score (O8-bP) was -0.376, the interaction score (O6-bP) was -0.577 and the interaction score (O7-bP) was -1.03. It also gave an interaction score (O2-bP) of -1.44 and an interaction score (O11-bP) of -0.79.

Work on DKNQQLKQKIQELKQKIQELKWENQELEQ [P12A-bN] yielded an interaction score (P2A-bN) of -0.94, an interaction score (P12A-bN) of -0.758 and an interaction score (P6A-bN) of 0.295. It also gave an interaction score (P4A-bN) of -0.221, an interaction score (P7A-bN) of -0.617 and an interaction score (P8A-bN) of -1.71. It also gave an interaction score (P9A-bN) of -1.28, an interaction score (P1A-bN) of -1.71 and an interaction score (P3A-bN) of 1.82. For the same binder, the interaction score (P5A-bN) was -1.2.

DENAQLEQKIAELKQKIAELKWENAQLEQ [4H1387-bA] was tested, and the interaction score (4H3601-bA) was -0.539, the interaction score (4H1387-bA) was -0.828 and the interaction score (4H3592-bA) was 2.02. The interaction score (4H3907-bA) was 1.32, the interaction score (4H4038-bA) was 0.838 and the interaction score (4H1406-bA) was -1.1.
